Source: PMC11750108, “FlbB forms a distinctive ring essential for periplasmic flagellar assembly and motility in Borrelia burgdorferi” (PLOS Pathogens, 2025)

Biological target: the molecule itself
Assay: SEC-SAXS; purified FLAG-FlbB-His6 at 4 mg/ml, 10 mM HEPES, 140 mM NaCl, pH 7.3; Shodex 802.5 SEC column, SIBYLS beamline 12.3.1; molecular weight from the volume of correlation

B1: FLAG-FlbB-His6 (deleted the first 42 aa from the FlbB) (domain or fragment)
chain: FPEFVRTKLLGETSLVFDHNSNIILDEARLVKEREAIDIKNQQIEKLKEDLKLKEDSLNKLEFELKQKQKDLDLKQKVIDDIINKYNDEEANILQTAVYLMNMPPEDAVKRLEDLNPELAISYMRKIEELSKKEGRLSIVPYWLSLMDSKKAAILIRKMSVSSLE
notes: FlbB, periplasmic flagellar collar protein of Borrelia burgdorferi (205 amino acids); the first 42 aa (with the N-terminal transmembrane helix) deleted; The deletion of the first 42 aa is stated only for the SEC-SAXS sample; Monomer estimated at 20.85 kDa; also called FlbB-6His; source: E. coli codon plus cells; in lysate of mixed cells (pull-downs); purified recombinant (SEC-SAXS, far-western); …
  stoichiometry N: 2
